Assays:
Experiment in all cases: purified protein
Settings in all cases: PLP-reconstituted holo-enzyme, 200 µM alpha-ketoglutarate, 500 µM NAD+, 5 U GDH, 10 mM Tris-HCl pH 8.0
purified protein [1] = substrate: NCCC[C@H](NC(=O)CCC(=O)O)C(=O)O; format: biochemical, Escherichia coli
purified protein [2] = substrate: CC(=O)N[C@@H](CCCN)C(=O)O; format: biochemical, Escherichia coli
purified protein [3] = substrate: NCCC[C@H](N)C(=O)O

B1: AstC (Escherichia coli K-12) (protein)
chain: MSQPITRENFDEWMIPVYAPAPFIPVRGEGSRLWDQQGKEYIDFAGGIAVNALGHAHPELREALNEQASKFWHTGNGYTNEPVLRLAKKLIDATFADRVFFCNSGAEANEAALKLARKFAHDRYGSHKSGIVAFKNAFHGRTLFTVSAGGQPAYSQDFAPLPADIRHAAYNDINSASALIDDSTCAVIVEPIQGEGGVVPASNAFLQGLRELCNRHNALLIFDEVQTGVGRTGELYAYMHYGVTPDLLTTAKALGGGFPVGALLATEECARVMTVGTHGTTYGGNPLASAVAGKVLELINTPEMLNGVKQRHDWFVERLNTINHRYGLFSEVRGLGLLIGCVLNADYAGQAKQISQEAAKAGVMVLIAGGNVVRFAPALNVSEEEVTTGLDRFAAACEHFVSRGSS
notes: full-length, native untagged, no plasmid; purified from E. coli BL21(DE3) by Ni-NTA and size exclusion as apo-protein, reconstituted with PLP; about 406 residues; dimer
B1 was tested, and the Km (purified protein [1]) was 284 µM, the kcat (purified protein [1]) was 3 s⁻¹ and the kcat/Km (purified protein [1]) was 10600 M⁻¹ s⁻¹. For the same protein, the Km (purified protein [2]) was 338 µM, the kcat (purified protein [2]) was 4.7 s⁻¹ and the kcat/Km (purified protein [2]) was 13900 M⁻¹ s⁻¹. The Km (purified protein [3]) was 4,391 µM, the kcat (purified protein [3]) was 3.5 s⁻¹ and the kcat/Km (purified protein [3]) was 797 M⁻¹ s⁻¹.
